T1: engineered version of human C5aR expressed on CHO cells of the PathHunter β-arrestin assay (DiscoveRx) (human, UniProt P21730 1-350)
T1 sequence (looked up): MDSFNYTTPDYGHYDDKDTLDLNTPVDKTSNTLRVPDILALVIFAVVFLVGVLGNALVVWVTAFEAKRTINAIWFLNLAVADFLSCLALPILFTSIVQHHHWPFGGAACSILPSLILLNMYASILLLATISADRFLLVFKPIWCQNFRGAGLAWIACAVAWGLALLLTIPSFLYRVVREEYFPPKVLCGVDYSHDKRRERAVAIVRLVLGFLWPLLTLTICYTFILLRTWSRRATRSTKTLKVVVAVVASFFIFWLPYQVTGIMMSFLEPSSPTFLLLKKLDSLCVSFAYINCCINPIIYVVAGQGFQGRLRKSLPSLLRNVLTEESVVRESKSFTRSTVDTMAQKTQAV

T2: full length human C5aR stably expressed on CHO Flp-In cells (human, UniProt P21730 1-350)
T2 construct: also called human C5aR expressed on CHO cells
T2 sequence: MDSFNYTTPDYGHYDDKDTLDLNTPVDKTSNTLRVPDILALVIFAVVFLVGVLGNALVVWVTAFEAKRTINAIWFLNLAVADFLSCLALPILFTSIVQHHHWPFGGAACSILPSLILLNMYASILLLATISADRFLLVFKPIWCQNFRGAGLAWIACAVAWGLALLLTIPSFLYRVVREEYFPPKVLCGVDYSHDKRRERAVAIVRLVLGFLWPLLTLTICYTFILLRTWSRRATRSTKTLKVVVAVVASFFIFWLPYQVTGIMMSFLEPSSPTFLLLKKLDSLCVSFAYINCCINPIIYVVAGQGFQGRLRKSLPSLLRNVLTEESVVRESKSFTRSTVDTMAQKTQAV

T3: full length cynomolgus C5aR stably expressed on CHO Flp-In cells (cynomolgus monkey (Macaca fascicularis))
T3 chain: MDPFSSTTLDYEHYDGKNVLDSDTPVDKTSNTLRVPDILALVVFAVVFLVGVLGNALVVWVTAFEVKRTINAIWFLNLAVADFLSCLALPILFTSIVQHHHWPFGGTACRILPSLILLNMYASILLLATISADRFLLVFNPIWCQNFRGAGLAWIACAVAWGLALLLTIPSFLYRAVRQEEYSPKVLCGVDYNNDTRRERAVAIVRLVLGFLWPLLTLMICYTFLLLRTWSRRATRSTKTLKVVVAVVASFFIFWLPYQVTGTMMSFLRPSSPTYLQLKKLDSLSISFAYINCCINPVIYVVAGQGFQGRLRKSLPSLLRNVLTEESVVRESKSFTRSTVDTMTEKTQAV

T4: C5aR expressed on purified human neutrophils (human, UniProt P21730 1-350)
T4 sequence (looked up): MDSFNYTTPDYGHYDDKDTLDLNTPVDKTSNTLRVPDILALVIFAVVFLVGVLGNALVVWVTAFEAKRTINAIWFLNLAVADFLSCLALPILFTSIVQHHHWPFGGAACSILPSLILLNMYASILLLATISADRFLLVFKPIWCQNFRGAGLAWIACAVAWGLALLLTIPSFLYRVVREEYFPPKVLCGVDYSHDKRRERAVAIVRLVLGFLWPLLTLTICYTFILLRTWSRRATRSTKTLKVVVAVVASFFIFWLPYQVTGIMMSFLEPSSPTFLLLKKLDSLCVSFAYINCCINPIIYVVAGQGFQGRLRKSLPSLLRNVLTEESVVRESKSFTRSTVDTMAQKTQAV

T5: C5aR expressed on purified cynomolgus neutrophils (cynomolgus monkey (Macaca fascicularis))
T5 construct: Endogenous receptor on neutrophils from whole blood of three animals; also called cynomolgus C5aR expressed endogenously
T5 chain: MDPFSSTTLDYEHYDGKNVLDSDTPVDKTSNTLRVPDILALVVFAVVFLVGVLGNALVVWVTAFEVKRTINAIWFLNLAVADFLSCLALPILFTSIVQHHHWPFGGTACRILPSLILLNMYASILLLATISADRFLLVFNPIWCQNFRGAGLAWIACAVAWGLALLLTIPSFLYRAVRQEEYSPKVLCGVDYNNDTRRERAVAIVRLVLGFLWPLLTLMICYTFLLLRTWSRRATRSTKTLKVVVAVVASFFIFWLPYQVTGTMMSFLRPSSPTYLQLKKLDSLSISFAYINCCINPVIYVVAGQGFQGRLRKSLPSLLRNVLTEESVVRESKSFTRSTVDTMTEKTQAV


Legend:
[1] = biological target: T1, engineered version of human C5aR …; assay: cell-based or functional assay
[2] = biological target: T2, full length human C5aR stably expressed …; assay: FACS on Flp-In CHO cells, IgG titration
Experimental: (§1) The C5aR-CHO Flp-In™ cell lines were blocked and IgGs were added either in serial dilutions or at a single (high) concentration of 300 nM. For detection of IgG binding, an R-phycoerythrin (R-PE) conjugated anti-human IgG (Fc-gamma fragment specific)2 antibody was added and fluorescence was measured using the FACS Array or Novocyte device.

[3] = biological target: T3, full length cynomolgus C5aR stably …; assay: FACS, CHO Flp-In cells expressing cynomolgus C5aR, single IgG concentration
Experimental: as §1

[4] = biological target: T4, C5aR expressed on purified human …; assay: cell-based or functional assay
[5] = biological target: T4, C5aR expressed on purified human …; assay: FACS on purified human neutrophils, IgG titration
Experimental: (§2) Neutrophils were purified from EDTA-whole blood samples using a MACSexpress® Neutrophil Isolation Cocktail from Miltenyi Biotec. Briefly, using this kit, cells are isolated using magnetic labeling and negative magnetic separation. […] Measurements were done at the FACS Array device. FACS data were evaluated using FlowJo™, entered into GraphPad® Prism (v4.0) and fitted to the sigmoidal dose-response curve using non-linear regression to calculate the EC50.

[6] = biological target: T4, C5aR expressed on purified human …; assay: cell-based or functional assay; remark: listed apart in the source
[7] = biological target: T1, engineered version of human C5aR …; assay: cell-based or functional assay; remark: listed apart in the source
[8] = biological target: T5, C5aR expressed on purified cynomolgus …; assay: FACS, purified cynomolgus neutrophils, IgG titration
Experimental: as §2

Binder | Activity of human C5a EC50 (nM) in absence of anti-C5aR antibody, β-arrestin recruitment (PathHunter) [1] [nM] | EC50 [2] [nM] | binding result [3] | CD11b assay, granulocytes, 15 nM C5a, 20 minutes of IgG incubation: IC50 [4] [nM] | CD11b assay, granulocytes, 15 nM C5a, 300 minutes of IgG incubation: IC50 [4] [nM] | CD11b assay, monocytes, 15 nM C5a, 20 minutes of IgG incubation: IC50 [4] [nM] | CD11b assay, monocytes, 15 nM C5a, 300 minutes of IgG incubation: IC50 [4] [nM] | EC50 [5] [nM] | IgG concentration for 50% inhibition of CD11b upregulation, granulocytes, 15 nM human C5a [6] [nM] | IgG concentration for 50% inhibition of CD11b upregulation, granulocytes, 150 nM human C5a [6] [nM] | [%] inhibition at 1.2 nM C5a and 50 nM IgG, β-arrestin recruitment [7] [%] | [%] inhibition at 11 nM C5a and 50 nM IgG, β-arrestin recruitment [7] [%] | [%] inhibition at 100 nM C5a and 50 nM IgG, β-arrestin recruitment [7] [%] | Activity of human C5a EC50 (nM) in presence of 50 nM anti-C5aR antibody, β-arrestin recruitment [1] [nM] | binding result [8]
Human C5a (ligand) TLQKKIEEIAAKYKHSVVKKCCYDGACVNNDETCEQRAARISLGPRCIKAFTECCVVASQLRANISHKDMQLGR | 2.9 |  |  |  |  |  |  |  |  |  |  |  |  |  | 
RefMAB #1 (antibody, human IgG1, kappa, V domains shown, also called IPH5401; NNC0215-0384) VH: EVQLVESGGGLVQPGGSLRLSCAASGFTFSSYVMHWVRQATGKGLEWVSAIDTGGGTYYADSVKGRFTISRENAKNSLYLQMNSLRAGDTAVYYCARDYYYYASGSYYKAFDIWGQGTMVTVSS VL: EIVLTQSPGTLSLSPGERATLSCRASQSVSSRYLAWYQQKPGQAPRLLIYGASSRATGIPDRFSGSGSGTDFTLTISRLEPEDFAVYYCQQYGSPLTFGQGTKLEIKR |  | 1.1 | no binding (tested: 300 nM) | 10.2 | 6.5 | 1.8 | 5.3 | 3.1 | 12 | 291 | 84.2 | 38.9 | 6.4 | 10 | no binding (tested: ~250 nM)
